Data set [1] deals with human adenovirus type 3 fibre knob (HAd3K), fibre residues 124-319, co-expressed with DSG2 EC2-EC3 (human adenovirus type 3) (UniProt P04501). In words: cryo-EM structure; complex co-expressed in E. coli and co-purified (Ni-NTA, SEC); 150 mM NaCl, 3 mM CaCl2, 10 mM Tris-Cl pH 8.0; Volta phase plate; particles with one or two EC2-EC3 modules per knob trimer sorted by classification.

Data set [2] concerns the molecule itself. Described as above.

The source of these data is publication PMC6414520, “CryoEM structure of adenovirus type 3 fibre with desmoglein 2 shows an unusual mode of receptor engagement” (Nature Communications, 2019).

The term stoichiometry N denotes a count of units in the complex or per binding partner.

Take “human desmoglein 2 EC2-EC3 domains (DSG2 residues 100-337), co-expressed with HAd3K in E. coli (domain or fragment)”: in data set [1], the stoichiometry N (DSG2 per knob trimer) was 2 and the stoichiometry N (receptor per knob trimer) was 1.

B1: human adenovirus type 3 fibre knob (HAd3K), fibre residues 124-319, co-expressed with DSG2 EC2-EC3 (domain or fragment)
chain: NSIALKNNTLWTGPKPEANCIIEYGKQNPDSKLTLILVKNGGIVNGYVTLMGASDYVNTLFKNKNVSINVELYFDATGHILPDSSSLKTDLELKYKQTADFSARGFMPSTTAYPFVLPNAGTHNENYIFGQCYYKASDGALFPLEVTVMLNKRLPDSRTSYVMTFLWSLNAGLAPETTQATLITSPFTFSYIREDD
notes: fibre protein of human adenovirus type 3, knob, fibre residues 124-319; Trimer; also called HAd3 fibre knob; HAdK3; source: E. coli Rosetta(DE3)pLysS, pETDuet, co-expressed with EC2-EC3, complex purified (Ni-NTA, SEC)
As to B1, the “stoichiometry N” value in data set [2] was determined as 3.
